Experimental findings from patent US20170145113A1 (Genentech, published 2017) are described below.

Substitutions are numbered along the chain they refer to. Numbers in names are those of the source.

To fix the notation:
B1: combination mutant LC4.HC3 Fab (Fab, V domains shown)
VH: EVQLVQSGAEVKKPGASVKVSCKASGYKFTDSEMHWVRQAPGQGLEWIGGVDPETDGAAYNQKFKGRATITRDTSTSTAYLELSSLRSEDTAVYYCTRGYDYDYALDYWGQGTLVTVSS
VL: DIQMTQSPSSLSASVGDRVTITCRASSSVNFIHWYQQKPGKAPKPLISATSHLASGVPSRFSGSGSGTDFTLTISSLQPEDFATYYCQQWSSNPWTFGQGTKVEIK
notes: Fab
B2: h15H6.v2 variant LC3 (LC-N31E) Fab (Fab, V domains shown)
VH: B1 VH with K28T
VL: B1 VL with N30E, H52N
notes: Fab-Flag tag fusion from 293T cells
B3: h15H6.v2 variant LC7 (LC-S92Y) Fab (Fab, V domains shown)
VH: B1 VH with K28T
VL: B1 VL with H52N, S91Y
notes: as for B2
B4: combination mutant LC3.HC3 Fab (Fab, V domains shown)
VH: B1 VH
VL: B1 VL with N30E, H52N
notes: Fab
B5: combination mutant LC7.HC5 Fab (Fab, V domains shown)
VH: B1 VH with K28T, M34L
VL: B1 VL with H52N, S91Y
notes: Fab
B6: combination mutant LC7.HC3 Fab (Fab, V domains shown)
VH: B1 VH
VL: B1 VL with H52N, S91Y
notes: Fab
B7: combination mutant LC5.HC1 Fab (Fab, V domains shown)
VH: B1 VH with K28T, T30K
VL: B1 VL with H52E
notes: Fab
B8: combination mutant LC7.HC1 Fab (Fab, V domains shown)
VH: B1 VH with K28T, T30K
VL: B1 VL with H52N, S91Y
notes: Fab
B9: combination mutant LC3.HC5 Fab (Fab, V domains shown)
VH: B1 VH with K28T, M34L
VL: B1 VL with N30E, H52N
notes: Fab
B10: combination mutant LC4.HC2 Fab (Fab, V domains shown)
VH: B1 VH with K28T, T30R
VL: B1 VL
notes: Fab
B11: combination mutant LC4.HC5 Fab (Fab, V domains shown)
VH: B1 VH with K28T, M34L
VL: B1 VL
notes: Fab
B12: combination mutant LC4.HC1 Fab (Fab, V domains shown)
VH: B1 VH with K28T, T30K
VL: B1 VL
notes: Fab
B13: combination mutant LC7.HC2 Fab (Fab, V domains shown)
VH: B1 VH with K28T, T30R
VL: B1 VL with H52N, S91Y
notes: Fab
B14: combination mutant LC5.HC5 Fab (Fab, V domains shown)
VH: B1 VH with K28T, M34L
VL: B1 VL with H52E
notes: Fab
B15: combination mutant LC5.HC2 Fab (Fab, V domains shown)
VH: B1 VH with K28T, T30R
VL: B1 VL with H52E
notes: Fab
B16: combination mutant LC3.HC2 Fab (Fab, V domains shown)
VH: B1 VH with K28T, T30R
VL: B1 VL with N30E, H52N
notes: Fab
B17: combination mutant LC5.HC3 Fab (Fab, V domains shown)
VH: B1 VH
VL: B1 VL with H52E
notes: Fab
B18: APEG.LC3.HC1 (Fab, V domains shown)
VH: B1 VH with K28T, T30K, D56E
VL: B1 VL with N30E, H52N, N93A
notes: single member of the group m82
B19: APEG.LC3.HC2 (Fab, V domains shown)
VH: B1 VH with K28T, T30R, D56E
VL: B1 VL with N30E, H52N, N93A
B20: APEG.LC37.HC13 (Fab, V domains shown)
VH: B1 VH with T30K, D56E
VL: B1 VL with N30E, H52N, S91Y, N93A
notes: as for B18
B21: APEG.LC7.HC1 (Fab, V domains shown)
VH: B1 VH with K28T, T30K, D56E
VL: B1 VL with H52N, S91Y, N93A
B22: APEG.LC7.HC2 (Fab, V domains shown)
VH: B1 VH with K28T, T30R, D56E
VL: B1 VL with H52N, S91Y, N93A
B23: APEG.LC7.HC3 (Fab, V domains shown)
VH: B1 VH with D56E
VL: B1 VL with H52N, S91Y, N93A

The first test deals with T1, His-tagged human HtrA1 protease domain (human, UniProt Q92743 161-367).
T1 construct: His-tagged protease domain; also called huHtrA1-PD-His; huHtrA1-PD
T1 sequence (Q92743 other isoform, or with tags, fused parts or gaps limits assumed): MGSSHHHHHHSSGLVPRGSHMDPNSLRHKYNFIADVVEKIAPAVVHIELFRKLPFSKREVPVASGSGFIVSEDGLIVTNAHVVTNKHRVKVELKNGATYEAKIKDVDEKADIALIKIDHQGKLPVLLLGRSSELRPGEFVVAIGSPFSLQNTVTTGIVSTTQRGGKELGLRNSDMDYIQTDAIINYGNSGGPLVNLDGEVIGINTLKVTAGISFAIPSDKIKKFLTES
As to the kind of experiment: SPR (BIACORE T200), huHtrA1-PD-His captured by anti-His, Fab injected. The method, then:
These combination mutants included both a variant light chain and a variant heavy chain. BIACORE™ kinetic analysis was performed (as described below in Section C) using the combination mutants.
(§1) To determine the binding affinity of selected Fab variants for HtrA1, SPR measurement with a BIACORE™ T200 instrument was performed. Briefly, a series S sensor chip CM5 was activated with 1-EDC and NHS reagents according to the supplier's instructions, and anti-His antibody was coupled to achieve 200-300 response units (RU), then following by blocking un-reacted groups with 1 M ethanolamine. For kinetics measurements, approximately 5 nM of huHtrA1-PD-His was first injected at 10 μl/min flow rate to capture approximately 100 RU at 2 different flow cells (FC), except for FC1 (which served as a reference). Next, 5-fold serial dilutions of Fab in HBS-P buffer (0.01M HEPES pH 7.4, 0.15M NaCl, 0.005% surfactant P20) from low (0.8 nM) to high (50 nM) were injected (flow rate: 30 μl/min). The binding responses on HtrA1 were corrected by subtracting of RU from a blank flow cell. The sensorgram was recorded and subject to reference and buffer subtraction before evaluating by BIACORE® T200 Evaluation Software (version 2.0). Association rates (kₒₙ) and dissociation rates (koff) were calculated using a simple one-to-one Langmuir binding model. The equilibrium dissociation constant (KD) was calculated as the ratio of koff/kₒₙ.
The Kd is the constant that tells how readily two partners part at equilibrium. As a reminder, the koff is the first-order rate constant of dissociation. A word on the kon: it is the second-order rate constant of association. For B1, the dissociation constant (Kd) was 2.18 nM, the koff turned out to be 0.00024 s⁻¹ and the kon was 110000 M⁻¹ s⁻¹.
As to B2, the Kd came out at 0.905 nM, the koff was 0.000115 s⁻¹ and the kon came out at 127000 M⁻¹ s⁻¹.
In the case of B3, the Kd is 1.37 nM, the off-rate (koff) came out at 0.000188 s⁻¹ and the kon amounted to 137000 M⁻¹ s⁻¹.
B4: the Kd came to 0.0616 nM, the koff was 4.93e-05 s⁻¹ and the kon turned out to be 801000 M⁻¹ s⁻¹.
B5: the Kd worked out at 0.745 nM, the koff amounted to 0.000303 s⁻¹ and the kon was 406000 M⁻¹ s⁻¹.
Take B6: the equilibrium dissociation constant (Kd) was determined as 0.335 nM, the koff came to 0.000237 s⁻¹ and the on-rate (kon) was found to be 709000 M⁻¹ s⁻¹.
As to B7, the Kd is 1.1 nM, the koff was determined as 0.00023 s⁻¹ and the kon is 208000 M⁻¹ s⁻¹.
Turning to B8, the Kd was 0.772 nM, the koff was found to be 0.000267 s⁻¹ and the kon worked out at 347000 M⁻¹ s⁻¹.
Regarding B9, the Kd was determined as 0.176 nM, the koff turned out to be 0.000102 s⁻¹ and the kon was determined as 577000 M⁻¹ s⁻¹.
Consider B10, for which the Kd is 7.98 nM, the koff came out at 0.000222 s⁻¹ and the association rate constant (kon) is 27800 M⁻¹ s⁻¹.
For B11 the same measures were 1.4 nM, 0.000297 s⁻¹ and 212000 M⁻¹ s⁻¹.
For the molecule B12, the Kd amounted to 0.852 nM, the koff is 0.000228 s⁻¹ and the kon stood at 268000 M⁻¹ s⁻¹.
For B13, the Kd is 0.0955 nM, the koff worked out at 0.000189 s⁻¹ and the kon is 1.97e+06 M⁻¹ s⁻¹.
Turning to B14, the equilibrium dissociation constant (Kd) came to 0.877 nM, the koff was found to be 0.000296 s⁻¹ and the kon turned out to be 337000 M⁻¹ s⁻¹.
In the same order, the values of B15 are 0.719 nM, 0.000211 s⁻¹ and 294000 M⁻¹ s⁻¹.
Take B16: the Kd amounted to 0.302 nM, the koff worked out at 0.000109 s⁻¹ and the kon is 362000 M⁻¹ s⁻¹.
As for B17, the Kd was 1.08 nM, the koff came out at 0.000251 s⁻¹ and the kon came out at 233000 M⁻¹ s⁻¹.

Another test deals with T1, His-tagged human HtrA1 protease domain. The test is described as above. This is another data set of the same source. The method, then:
as §1
As to B2, the Kd was found to be 0.48 nM, the dissociation rate constant (koff) turned out to be 0.00013 s⁻¹ and the kon is 270000 M⁻¹ s⁻¹.
In the same order, the values of B3 are 0.335 nM, 0.000193 s⁻¹ and 578000 M⁻¹ s⁻¹.

Another test shares this target. As to the kind of experiment: BIACORE T200 SPR; Fab analyte over huHtrA1-PD-His captured by anti-His antibody. The method, then: as §1
Consider B18, for which binding was put at a Kd of 0.106 nM, the koff was 4.55e-05 s⁻¹ and the kon stood at 428000 M⁻¹ s⁻¹.
Turning to B19, the dissociation constant (Kd) came to 0.117 nM, the koff came out at 4.08e-05 s⁻¹ and the association rate constant (kon) was determined as 350000 M⁻¹ s⁻¹.
B20 had a dissociation constant (Kd) of 0.095 nM, a koff of 4.09e-05 s⁻¹ and a kon of 431000 M⁻¹ s⁻¹.
On to B21, for which the Kd worked out at 0.137 nM, the koff was determined as 2.75e-05 s⁻¹ and the kon was found to be 200000 M⁻¹ s⁻¹.
For the molecule B22, the Kd amounted to 0.309 nM, the off-rate constant (koff) was 6.6e-05 s⁻¹ and the kon came out at 213000 M⁻¹ s⁻¹.
The molecule B23 gave a Kd of 0.332 nM, a koff of 7.93e-05 s⁻¹ and a kon of 239000 M⁻¹ s⁻¹.
